Measured values published in paper PMC4817942.

Legend:
FcγRI (CD64) = FcγRI (CD64) (UniProt P12314); experiment: SPR; Biacore analysis; who was immobilised, buffer and temperature not given for this experiment
[1] = target: neonatal Fc receptor (FcRn) (UniProt P55899); experiment: SPR; Biacore analysis; FcRn data collected at pH6; who was immobilised not told
FcγRIII (CD16A) = FcγRIII (CD16A) (UniProt P08637); experiment: SPR; Biacore analysis; who was immobilised, buffer and temperature not given for this experiment
FcγRIIA (CD32A) = FcγRIIA (CD32A) (UniProt P12318); experiment: as above
FcγRIIB (CD32B) = FcγRIIB (CD32B) (UniProt P31994); experiment: as above
[2] = target: HER2 on the cell surface (human (endogenous in SK-BR-3, HCC1954 and BT474)) (UniProt P04626); experiment: flow cytometry on cells; cells with 0.1-2,000 nmol/l Fcab for 1 hour at 4 °C in DPBS with 2% FBS; detected by anti-human IgG-phycoerythrin
[3] = target: HER2 on the cell surface (human (endogenous in SK-BR-3, HCC1954 and BT474)) (UniProt P04626)
[4] = target: human HER2 ECD-Fc recombinant (human) (UniProt P04626); experiment: SPR; BIAcore 3000; human HER2 ECD-Fc amine-coupled on a CM5 chip to 200 RU; analyte FS102 (50 µg/ml) at 20 µl/minute; HBS-P buffer; apparent KD

Sequence of FcγRIIB (CD32B) (P31994 43-310): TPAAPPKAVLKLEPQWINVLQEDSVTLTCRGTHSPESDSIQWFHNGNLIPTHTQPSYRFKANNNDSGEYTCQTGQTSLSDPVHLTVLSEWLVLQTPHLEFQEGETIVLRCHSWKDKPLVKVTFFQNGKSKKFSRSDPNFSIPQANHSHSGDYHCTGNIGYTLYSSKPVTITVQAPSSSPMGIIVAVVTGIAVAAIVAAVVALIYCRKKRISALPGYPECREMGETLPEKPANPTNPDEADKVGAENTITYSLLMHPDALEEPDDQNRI
Sequence of FcγRIIA (CD32A) (P12318 34-317): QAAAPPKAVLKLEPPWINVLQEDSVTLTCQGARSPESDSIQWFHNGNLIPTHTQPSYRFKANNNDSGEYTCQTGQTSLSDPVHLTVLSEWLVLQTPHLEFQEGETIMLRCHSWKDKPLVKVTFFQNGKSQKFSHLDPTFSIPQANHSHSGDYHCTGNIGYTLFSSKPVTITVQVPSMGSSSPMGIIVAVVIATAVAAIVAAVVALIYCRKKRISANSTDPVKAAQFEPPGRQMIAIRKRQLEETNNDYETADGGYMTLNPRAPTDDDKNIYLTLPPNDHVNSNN
Sequence of FcγRIII (CD16A) (P08637 17-254): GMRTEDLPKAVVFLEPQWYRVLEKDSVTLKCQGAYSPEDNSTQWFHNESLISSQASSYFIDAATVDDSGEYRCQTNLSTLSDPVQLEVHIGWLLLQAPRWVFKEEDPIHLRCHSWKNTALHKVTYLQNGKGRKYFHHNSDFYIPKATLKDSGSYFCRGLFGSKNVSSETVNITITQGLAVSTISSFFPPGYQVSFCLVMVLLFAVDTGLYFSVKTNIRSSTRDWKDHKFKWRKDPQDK
Sequence of FcγRI (CD64) (P12314 16-374): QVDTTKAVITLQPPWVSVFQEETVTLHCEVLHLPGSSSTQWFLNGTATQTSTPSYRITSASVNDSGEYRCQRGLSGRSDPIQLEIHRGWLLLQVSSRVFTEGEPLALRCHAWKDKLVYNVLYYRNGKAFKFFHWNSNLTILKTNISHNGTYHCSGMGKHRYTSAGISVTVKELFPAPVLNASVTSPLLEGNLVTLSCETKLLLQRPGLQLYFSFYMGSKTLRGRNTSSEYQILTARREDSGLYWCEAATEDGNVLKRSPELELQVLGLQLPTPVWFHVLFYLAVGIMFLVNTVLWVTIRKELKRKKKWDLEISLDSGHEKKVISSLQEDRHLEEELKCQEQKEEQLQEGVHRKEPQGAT
Sequence of neonatal Fc receptor (FcRn) (P55899 whole entry, looked up, tested part not stated): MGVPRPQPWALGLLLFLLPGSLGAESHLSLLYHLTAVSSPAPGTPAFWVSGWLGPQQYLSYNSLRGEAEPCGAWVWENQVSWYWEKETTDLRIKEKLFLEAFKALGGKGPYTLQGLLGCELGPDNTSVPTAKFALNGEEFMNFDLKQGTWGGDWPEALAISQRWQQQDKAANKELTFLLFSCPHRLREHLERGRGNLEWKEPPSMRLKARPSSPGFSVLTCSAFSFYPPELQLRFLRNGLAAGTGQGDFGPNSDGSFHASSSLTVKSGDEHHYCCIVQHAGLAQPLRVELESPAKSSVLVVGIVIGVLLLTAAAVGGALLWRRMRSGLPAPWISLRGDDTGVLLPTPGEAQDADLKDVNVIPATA

| Substance | Kd (FcγRI (CD64)) | Kd [1] | Kd (FcγRIII (CD16A)) | Kd (FcγRIIA (CD32A)) | Kd (FcγRIIB (CD32B)) | EC50 [2] | reduction of HCC1954 cell number after 5 days of incubation (proliferation assay) [3] | reduction of SK-BR-3 cell number after 5 days of incubation (proliferation assay) [3] | Kd [4] |
| --- | --- | --- | --- | --- | --- | --- | --- | --- | --- |
| Trastuzumab (antibody) | 0.04 µM |  |  |  |  |  |  |  |  |
| IgG1 (antibody) | 0.015 µM | 0.02 to 0.06 µM | 0.66 µM | 0.25 µM | 5 µM |  |  |  |  |
| FS102 (designed binder) | 0.019 µM | 0.045 µM | 0.56 µM | 0.472 µM | 6.4 µM | 0.0033 µM | 47% | 39% | 0.0008 µM |
| WT Fcab (unmodified constant region of human IgG1) (domain or fragment) | 0.027 µM |  | 0.5 µM | 1 µM | 6.2 µM |  |  |  |  |
